Results taken from article PMC8830441, “Interaction of TLK1 and AKTIP as a Potential Regulator of AKT Activation in Castration-Resistant Prostate Cancer Progression” (Pathophysiology, 2021).

Molecular target: T1, Full-length, wild-type recombinant His-tagged TLK1B (human, UniProt Q9UKI8-3 1-549)
T1 construct: wild-type, full-length TLK1B; also called His-TLK1B; recombinant TLK1; source: bacterial expression plasmid, recombinant, purified according to the published literature
T1 sequence (looked up): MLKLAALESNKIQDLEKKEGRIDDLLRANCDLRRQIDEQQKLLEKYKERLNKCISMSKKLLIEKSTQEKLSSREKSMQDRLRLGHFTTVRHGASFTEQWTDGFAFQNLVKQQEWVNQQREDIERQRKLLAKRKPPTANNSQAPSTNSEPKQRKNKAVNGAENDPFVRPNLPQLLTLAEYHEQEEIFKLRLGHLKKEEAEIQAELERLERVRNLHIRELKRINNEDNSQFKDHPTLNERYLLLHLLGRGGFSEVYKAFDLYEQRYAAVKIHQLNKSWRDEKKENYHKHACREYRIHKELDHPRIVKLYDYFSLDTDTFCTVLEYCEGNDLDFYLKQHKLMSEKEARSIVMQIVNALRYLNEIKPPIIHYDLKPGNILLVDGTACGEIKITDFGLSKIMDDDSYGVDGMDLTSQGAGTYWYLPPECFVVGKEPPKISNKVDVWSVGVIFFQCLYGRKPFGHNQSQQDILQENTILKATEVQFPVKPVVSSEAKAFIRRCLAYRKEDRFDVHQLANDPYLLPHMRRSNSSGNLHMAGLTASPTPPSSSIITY
Experiment: pull-down; His-TLK1B and GST-AKTIP, 1 µg of each, incubated on ice 30 min, isolated on Ni-NTA agarose beads, washed with cell lysis buffer, WB for AKTIP
Conditions: both partners purified

B1: wild-type full-length human GST-AKTIP (natural protein, UniProt Q9H8T0 1-292, looked up)
chain: MNPFWSMSTSSVRKRSEGEEKTLTGDVKTSPPRTAPKKQLPSIPKNALPITKPTSPAPAAQSTNGTHASYGPFYLEYSLLAEFTLVVKQKLPGVYVQPSYRSALMWFGVIFIRHGLYQDGVFKFTVYIPDNYPDGDCPRLVFDIPVFHPLVDPTSGELDVKRAFAKWRRNHNHIWQVLMYARRVFYKIDTASPLNPEAAVLYEKDIQLFKSKVVDSVKVCTARLFDQPKIEDPYAISFSPWNPSVHDEAREKMLTQKKPEEQHNKSVHVAGLSWVKPGSVQPFSKEEKTVAT
notes: also called GST-tagged AKTIP; source: bacterial expression plasmid, recombinant, purified from bacteria according to the published literature
Does B1 bind?
Result: binds
